Measurements as given in article PMC10221034 (2023).

Target: wild-type rTpiA (recombinant Streptococcus pneumoniae D39 triosephosphate isomerase) (Streptococcus pneumoniae D39) (UniProt Q04JH4)
Test: SPR; Biacore X100; rTpiA immobilised on CM5 chip by amine coupling; plasminogen 6.25-100 nM injected, contact time 120 s, 20 µL/min; running buffer 100 mM HEPES pH 7.4, 150 mM NaCl, 3 mM EDTA, 0.005% surfactant P20; apparent constants

Sequence of wild-type rTpiA (recombinant Streptococcus pneumoniae D39 triosephosphate isomerase) (Streptococcus pneumoniae D39) (Q04JH4 2-252): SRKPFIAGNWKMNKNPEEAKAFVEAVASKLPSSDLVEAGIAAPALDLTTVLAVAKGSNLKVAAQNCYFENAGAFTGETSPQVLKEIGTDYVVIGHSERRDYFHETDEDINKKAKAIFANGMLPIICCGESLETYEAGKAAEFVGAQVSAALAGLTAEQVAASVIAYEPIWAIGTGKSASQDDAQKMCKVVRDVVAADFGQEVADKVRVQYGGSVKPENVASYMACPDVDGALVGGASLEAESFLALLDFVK

human plasma plasminogen (natural protein)
Kd: 865 nM
koff: 0.00375 s⁻¹
kon: 4340 M⁻¹ s⁻¹
